# Data reported in patent publication US20180037623A1.
# Molecular target: FGF23 receptor
# Test: cell-based or functional assay
substance,measurement,value
sKlotho-FGF23-6×His fusion polypeptide,"Egr-1-luciferase reporter activity, fold change at about 0.6 nM purified fusion, with heparin (20 µg/ml)",2 fold change
same,"Egr-1-luciferase reporter activity, fold change at about 1.21 nM purified fusion, no heparin",1.2 fold change
same,"Egr-1-luciferase reporter activity, fold change at about 19.3 nM purified fusion, no heparin",2.4 fold change
